This is an account of results in publication PMC4381330, “Identification of a novel selective agonist of PPARγ with no promotion of adipogenesis and less inhibition of osteoblastogenesis” (Scientific Reports, 2015).

The target of assay [1] is GST-fused human PPARγ-LBD (human). As to the kind of experiment: AlphaScreen or HTRF; LanthaScreen TR-FRET coregulator peptide assay; serial concentrations of rosiglitazone with GST-PPARγ-LBD, terbium-labeled anti-GST antibody and fluorescein-labeled peptide, 4 h; 520 nm/495 nm ratio. Background: Alpha assays give light when donor and acceptor beads are brought close together.

The target is the same in assay [2]. As to the kind of experiment: AlphaScreen or HTRF; LanthaScreen TR-FRET coregulator peptide assay; serial concentrations of F12016 with GST-PPARγ-LBD, terbium-labeled anti-GST antibody and fluorescein-labeled peptide, 4 h; coactivator data as percent of the maximum of rosiglitazone.

Consider “CREB-binding protein (CBP) peptide, fluorescein-labeled”, for which the efficacy (maximum recruitment, % of rosiglitazone), with rosiglitazone in assay [1] stood at 100%. The efficacy (maximum recruitment, % of rosiglitazone), with F12016 in assay [2] stood at 10%.
In the same order, the values of “steroid receptor coactivator (SRC) 1 peptide, fluorescein-labeled” are 100% and 26%.
The corresponding values for “steroid receptor coactivator (SRC) 3 peptide, fluorescein-labeled” are 100% and 23%.
As to “transcriptional intermediary factor 2 (TIF2) peptide, fluorescein-labeled”, in assay [1], the efficacy (maximum recruitment, % of rosiglitazone), with rosiglitazone is 100%. The substance also showed an efficacy (maximum recruitment, % of rosiglitazone), with F12016 in assay [2] of 17%.
